Here are results for 27 molecules from PMC10786891, “Massively parallel profiling of RNA-targeting CRISPR-Cas13d”.

Changes are numbered by the printed parent chain. Names and notes keep the numbering of the source.

T1: EsCas13d, nuclease-dead (Eubacterium siraeum, UniProt B0MS50, R295A;H300A;R849A;H854A)
T1 sequence: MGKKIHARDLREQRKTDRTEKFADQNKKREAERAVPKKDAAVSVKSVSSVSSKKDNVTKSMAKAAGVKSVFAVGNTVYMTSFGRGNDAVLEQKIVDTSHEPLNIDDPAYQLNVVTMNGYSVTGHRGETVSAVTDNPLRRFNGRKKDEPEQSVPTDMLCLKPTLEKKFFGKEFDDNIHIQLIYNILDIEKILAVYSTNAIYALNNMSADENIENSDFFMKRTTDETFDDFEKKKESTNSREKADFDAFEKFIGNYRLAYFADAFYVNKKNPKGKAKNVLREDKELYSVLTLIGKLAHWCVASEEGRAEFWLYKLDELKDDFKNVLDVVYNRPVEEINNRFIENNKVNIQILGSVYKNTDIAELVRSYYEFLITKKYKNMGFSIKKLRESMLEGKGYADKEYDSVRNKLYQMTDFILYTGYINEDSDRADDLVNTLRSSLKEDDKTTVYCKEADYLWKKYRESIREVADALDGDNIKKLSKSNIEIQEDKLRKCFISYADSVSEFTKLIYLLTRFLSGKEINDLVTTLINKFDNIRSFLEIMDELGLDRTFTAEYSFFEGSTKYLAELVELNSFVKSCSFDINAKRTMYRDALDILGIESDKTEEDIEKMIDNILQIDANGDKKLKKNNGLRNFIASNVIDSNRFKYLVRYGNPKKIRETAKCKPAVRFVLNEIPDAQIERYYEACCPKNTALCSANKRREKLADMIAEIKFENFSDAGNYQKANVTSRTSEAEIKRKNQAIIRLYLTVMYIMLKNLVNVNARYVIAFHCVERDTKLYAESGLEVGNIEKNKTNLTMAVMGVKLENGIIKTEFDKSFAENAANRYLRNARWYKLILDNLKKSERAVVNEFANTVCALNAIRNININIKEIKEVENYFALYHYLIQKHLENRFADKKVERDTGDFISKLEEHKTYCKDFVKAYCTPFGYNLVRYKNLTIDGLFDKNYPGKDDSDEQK

B1: target 3 G4U,U8A (mixed)
RNA 1: CACCCGUGCAAAAUUGCAGGGGUCUAAAACGACCUGAAUAUUUCAGAUCAAA
RNA 2: GGGAAUGGAUCCACAUCUACGAAUUCGUUUUUGAUCUGAAAUAAUCAUGUCUGCAGAUCGGAAGAGCACACGU
B2: target 3 insC 3' of 13,insC 3' of 3 (mixed)
RNA 1: B1 RNA 1
RNA 2: GGGAAUGGAUCCACAUCUACGAAUUCGUUUUUGAUCUGACAAUAUUCAGGCUCUGCAGAUCGGAAGAGCACACGU
B3: target 3 insG 3' of 5 (mixed)
RNA 1: B1 RNA 1
RNA 2: GGGAAUGGAUCCACAUCUACGAAUUCGUUUUUGAUCUGAAAUAUUCAGGGUCUGCAGAUCGGAAGAGCACACGU
B4: target 3 insC 3' of 9,insA 3' of 7 (mixed)
RNA 1: B1 RNA 1
RNA 2: B2 RNA 2 with C40A, A42U, U43A, A44C, C47A, A48C, G49A, C51G
B5: target 3 G3U,C6U (mixed)
RNA 1: B1 RNA 1
RNA 2: B1 RNA 2 with A44U, C46U, U48G, G49U
B6: target 3 insG 3' of 9,insU 3' of 5 (mixed)
RNA 1: B1 RNA 1
RNA 2: B2 RNA 2 with C40A, A42U, U43A, A44G, G49U, C51G
B7: target 3 A12G,A18G (mixed)
RNA 1: B1 RNA 1
RNA 2: B1 RNA 2 with A34G, A40G, A44U, U48G
B8: target 3 G4A,U7A (mixed)
RNA 1: B1 RNA 1
RNA 2: B1 RNA 2 with A44U, U45A, U48A
B9: target 3 U2G,G4U (mixed)
RNA 1: B1 RNA 1
RNA 2: B1 RNA 2 with A44U, U50G
B10: target 3 U7C,U22C (mixed)
RNA 1: B1 RNA 1
RNA 2: B1 RNA 2 with U30C, A44U, U45C, U48G
B11: target 3 U2G,A12U (mixed)
RNA 1: B1 RNA 1
RNA 2: B1 RNA 2 with A40U, A44U, U48G, U50G
B12: target 3 A11C,A18G (mixed)
RNA 1: B1 RNA 1
RNA 2: B1 RNA 2 with A34G, A41C, A44U, U48G
B13: target 3 G4C,U22G (mixed)
RNA 1: B1 RNA 1
RNA 2: B1 RNA 2 with U30G, A44U, U48C
B14: target 3 G3U,C6A (mixed)
RNA 1: B1 RNA 1
RNA 2: B1 RNA 2 with A44U, C46A, U48G, G49U
B15: target 3 G4U,A11G (mixed)
RNA 1: B1 RNA 1
RNA 2: B1 RNA 2 with A41G, A44U
B16: target 3 C6G,U22A (mixed)
RNA 1: B1 RNA 1
RNA 2: B1 RNA 2 with U30A, A44U, C46G, U48G
B17: target 3 U2A,C16U (mixed)
RNA 1: B1 RNA 1
RNA 2: B1 RNA 2 with C36U, A44U, U48G, U50A
B18: target 3 U2A,U7A (mixed)
RNA 1: B1 RNA 1
RNA 2: B1 RNA 2 with A44U, U45A, U48G, U50A
B19: target 3 del2,del6 (mixed)
RNA 1: B1 RNA 1
RNA 2: GGGAAUGGAUCCACAUCUACGAAUUCGUUUUUGAUCUGAAAUAUUAGGCUGCAGAUCGGAAGAGCACACGU
B20: target 3 U7A,U8G (mixed)
RNA 1: B1 RNA 1
RNA 2: B1 RNA 2 with A44G, U45A, U48G
B21: target 3 G4U,A5G (mixed)
RNA 1: B1 RNA 1
RNA 2: B1 RNA 2 with A44U, A47G
B22: target 3 insG 3' of 7,insU 3' of 3 (mixed)
RNA 1: B1 RNA 1
RNA 2: B2 RNA 2 with C40A, A42U, U43A, A44U, U46G, C51U
B23: target 3 insG 3' of 6,insG 3' of 2 (mixed)
RNA 1: B1 RNA 1
RNA 2: B2 RNA 2 with C40A, A42U, U43A, A44U, U46C, C47G, C51U, U52G
B24: target 3 C6G,U8C (mixed)
RNA 1: B1 RNA 1
RNA 2: B1 RNA 2 with A44C, C46G, U48G
B25: target 1 insA 3' of 5,insA 3' of 2 (mixed)
RNA 1: CACCCGUGCAAAAAUGCAGGGGUCUAAAACUGAGCGGAUAACCUCUCUAUGG
RNA 2: GGGAAUGGAUCCACAUCUACGAAUUCGUACCAUAGAGAGGUUAUCCGACUCAACCGAGAUCGGAAGAGCACACGU
B26: target 1 insA 3' of 5,insC 3' of 1 (mixed)
RNA 1: B25 RNA 1
RNA 2: B25 RNA 2 with A53C
B27: target 1 insU 3' of 21,insC 3' of 5 (mixed)
RNA 1: B25 RNA 1
RNA 2: GGGAAUGGAUCCACAUCUACGAAUUCGUACCUAUAGAGAGGUUAUCCGCCUCACCGAGAUCGGAAGAGCACACGU

The target of the series is T1, EsCas13d, nuclease-dead. Nature of the series: crRNA (strand 1, pre-loaded); Mg2+; 40 mM Tris-HCl pH 7.5, 150 mM NaCl, 6 mM MgCl2, 1 mM DTT, 0.1% Tween-20, 0.2 mg/ml BSA; 25 C; 10 min per concentration, then washed. The note with it: tags: His6-TwinStrep-SUMO cleaved; N-terminal SNAP kept (SNAP-Surface 488); label: 3' end held by stalled T7 RNA polymerase.
As a reminder, the Kd is a measure of binding affinity in units of concentration. High values mean lower affinity, low ones higher affinity. Regarding B1, binding was put at a Kd of 30.2 ± 3.9 nM. For the molecule B2, the Kd turned out to be 81 ± 22 nM. On to B3, for which the Kd was 19.9 ± 1.95 nM. Compared with the last molecule, the Kd is about 4.1-fold lower. Under B4 stands 60.5 ± 12.5 nM; under B5, 19.2 ± 1.95 nM; under B6, 65.5 ± 9 nM. Under B7 stands 62 ± 13 nM; under B8, 21.1 ± 2.25 nM; under B9, 2.11 ± 0.25 nM.

Molecule B10 yielded a Kd of 70.5 ± 13.5 nM. Under B11 stands 46.5 ± 6.5 nM; under B12, 73 ± 22.5 nM. Under B13 stands 85.5 ± 24.5 nM. The figure for B14 is 39.7 ± 3.65 nM; for B15 it is 43.5 ± 8 nM; for B16 it is 26.2 ± 3.5 nM.

With B17, the Kd was 45.2 ± 8.25 nM. Under B18 stands 13.1 ± 1.7 nM.

Turning to B19, the affinity, expressed as Kd, was 18 ± 1.85 nM.

In turn, B20 gave a Kd of 84 ± 24 nM. Under B21 stands 7.04 ± 0.57 nM; under B22, 47.5 ± 10.5 nM; under B23, 16.3 ± 3 nM.

As to B24, the dissociation constant Kd turned out to be 74.5 ± 7 nM.

As for B25, the Kd was 7.8 ± 0.7 nM.

B26 yielded a Kd of 8.4 ± 1.6 nM. The figure for B27 is 50 ± 10 nM.
